According to the supplement of paper PMC11908140:

B1: library; numbered along this chain (parent)
chain: MRKPRAAVGSGHRKQAASQEGRQKHAKNNSQAKPSACDGLARQPEEVVLQASVSSYHLFRDVAEVTAFRGSLLSWYDQEKRDLPWRRRAEDEMDLDRRAYAVWVSEVMLQQTQVATVINYYTGWMQKWPTLQDLASASLEEVNQLWAGLGYYSRGRRLQEGARKVVEELGGHMPRTAETLQQLLPGVGRYTAGAIASIAFGQATGVVDGNVARVLCRVRAIGADPSSTLVSQQLWGLAQQLVDPARPGDFNQAAMELGATVCTPQRPLCSQCPVESLCRARQRVEQEQLLASGSLSGSPDVEECAPNTGQCHLCLPPSEPWDQTLGVVNFPRKASRKPPREESSATCVLEQPGALGAQILLVQRPNSGLLAGLWEFPSVTWEPSEQLQRKALLQELQRWAGPLPATHLRHLGEVVHTFSHIKLTYQVYGLALEGQTPVTTVPPGARWLTQEEFHTAAVSTAMKKVFRVYQGQQPGTCMGSKRSQVSSPCSRKKPRMGQQVLDNFFRSHISTDAHSLNSAAQ

Variants of: B1
Assay: 8OG:A repair function score (normalized; synonymous = 0, nonsense = -1) (normalized log-likelihood score); higher = more repair activity (WT-like)
Conditions: with 8OG:A DNA repair reporter (GFP) in HEK-293 MUTYH KO cells
How it was run: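 Per-tile Rosace fitness scores were converted to a normalized repair function score anchored on synonymous and nonsense distributions. That scale puts synonymous medians at 0 and nonsense medians at -1. Variants with starting counts under 300 counts per million were discarded. Input came from sorting viable mCherry+ MUTYH knockout HEK-293 cells, carrying lentiviral MUTYH cDNA NNN codon-scan libraries in 10 pg/ml doxycycline and an 8OG:A GFP repair reporter, into GFP+ and GFP− bins at 72 h, three replicates per tile, followed by tile amplicon sequencing.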
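Further: cells sorted at 72 h after reporter transfection.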

Variant | 8OG:A repair function score
S459K | -1.03
S459H | -0.136
S459D | -0.823
S459N | -0.679
S459R | -1.13
S459Y | -0.268
S459E | -1.11
S459L | -0.866
S459F | -0.45
S459I | -0.53
S459G | -0.212
S459M | -0.693
S459C | -0.291
S459W | -0.631
S459P | -0.197
S459A | -0.218
S459T | -0.392
S459V | -0.746
S459Q | -0.749
H454D | -0.376
H454P | -0.139
H454C | 0.0357
H454V | -0.00673
H454A | 0.182

Variant | 8OG:A repair function score
H454M | -0.158
H454F | -0.268
H454R | -0.00791
H454I | -0.184
H454T | 0.153
H454Y | -0.087
H454N | 0.24
H454Q | -0.0422
H454E | -0.068
H454K | -0.0092
H454W | 0.536
H454S | -0.168
H454G | -0.0392
H454L | -0.234
T460V | -0.029
T460H | -0.38
T460A | -0.00746
T460K | -0.0077
T460F | -0.157
T460C | -0.0915
T460S | -0.019
T460Y | -0.219
T460M | -0.152
T460Q | -0.131

Variant | 8OG:A repair function score
T460R | -0.0566
T460G | -0.0856
T460E | -0.212
T460I | -0.102
T460W | -0.305
T460N | -0.00346
T460D | -0.312
T460L | -0.235
T460P | -0.347
A445M | -0.292
A445G | -0.0675
A445K | -0.464
A445W | -0.606
A445N | -0.506
A445F | -0.672
A445C | 0.0578
A445S | -0.0458
A445Y | -0.693
A445R | -0.53
A445P | -0.65
A445E | -0.567
A445L | -0.363
A445D | -1.09
A445Q | -0.575

Variant | 8OG:A repair function score
A445H | -0.71
A445T | -0.288
A445V | -0.109
A445I | -0.318
M462D | -0.463
M462A | -0.0163
M462E | -0.603
M462F | -0.254
M462G | -0.215
M462K | -1.21
M462H | -0.138
M462L | -0.449
M462I | -0.13
M462C | -0.0756
T449V | -0.286
T449A | 0.0699
T449I | -0.282
T449S | 0.084
T449N | -0.203
T449M | -0.0649
T449W | -0.634
T449L | -0.0459
T449G | -0.132
T449Q | -0.0362

Variant | 8OG:A repair function score
T449E | -0.0743
T449R | 0.00957
T449P | -0.0904
T449F | -0.363
T449K | -0.144
T449D | -0.211
T449H | -0.131
T449C | -0.0406
T449Y | 0.0178
W447Y | -0.455
W447I | -0.784
W447R | -0.794
W447Q | -1.16
W447K | -0.937
W447E | -1.14
W447S | -1.01
W447N | -0.921
W447A | -0.968
W447P | -0.941
W447F | -0.355
W447H | -0.881
W447D | -1.18
W447T | -1.01
W447V | -0.846

Variant | 8OG:A repair function score
W447M | -0.801
W447G | -1.04
W447C | -1.09
W447L | -0.567
A457N | -0.58
A457P | -0.15
A457Q | -0.402
A457R | -0.672
A457H | -0.398
A457M | -0.585
A457D | -0.44
A457V | -0.205
A457W | -0.671
A457I | -0.537
A457L | -0.583
A457G | -0.183
A457S | -0.432
A457C | -0.467
A457T | -0.533
A457F | -0.356
A457E | -0.495
A457K | -0.815
A457Y | -0.48
A461N | -0.222

Variant | 8OG:A repair function score
A461L | -0.0454
A461T | -0.23
A461P | -0.267
A461M | -0.276
A461E | -0.842
A461V | -0.124
A461H | -0.545
A461I | -0.152
A461D | -0.732
A461Y | -0.726
A461Q | -0.495
A461K | -0.813
A461C | -0.0899
A461W | -1.22
A461R | -0.632
A461S | -0.119
A461G | 0.00127
A461F | -0.265
R446N | -0.508
R446D | -0.442
R446E | -0.312
R446H | -0.177
R446Y | -0.414
R446L | -0.202

Variant | 8OG:A repair function score
R446F | -0.449
R446G | -0.67
R446A | -0.143
R446I | -0.193
R446M | -0.121
R446P | -1.13
R446C | -0.342
R446W | -0.356
R446S | -0.255
R446Q | -0.119
R446V | -0.116
R446K | -0.277
R446T | -0.232
Q450Y | 0.286
Q450W | -0.011
Q450L | -0.12
Q450C | -0.0453
Q450K | 0.354
Q450H | 0.0291
Q450I | -0.0986
Q450G | -0.0458
Q450P | -0.118
Q450A | -0.0533
Q450F | 0.013

Variant | 8OG:A repair function score
Q450N | 0.172
Q450E | 0.156
Q450V | 0.073
Q450T | 0.0482
Q450D | -0.113
Q450M | -0.0723
Q450R | 0.0701
Q450S | -0.114
V458P | -0.535
V458R | -0.663
V458W | -0.709
V458M | -0.204
V458G | -0.853
V458K | -0.57
V458D | -0.952
V458H | -0.592
V458L | -0.294
V458T | -0.214
V458C | -0.27
V458F | -0.4
V458Y | -0.724
V458E | -0.975
V458A | -0.667
V458I | -0.0811

Variant | 8OG:A repair function score
V458S | -0.192
V458N | -0.786
V458Q | -0.711
A456I | -0.12
A456E | -0.405
A456D | -0.523
A456K | -0.248
A456R | -0.498
A456F | -0.61
A456P | -0.814
A456Q | -0.514
A456W | -0.531
A456S | -0.267
A456C | -0.168
A456Y | -0.476
A456V | -0.16
A456H | -0.479
A456L | -0.287
A456M | -0.328
A456N | -0.487
A456G | -0.246
A456T | -0.365
F453Y | -0.106
F453H | -0.758

Variant | 8OG:A repair function score
F453C | -0.791
F453L | -0.306
F453D | -1.22
F453K | -0.87
F453P | -0.896
F453M | -0.51
F453A | -0.66
F453G | -0.893
F453N | -1.25
F453R | -1.09
F453V | -0.184
F453T | -0.694
F453W | -0.274
F453Q | -0.887
F453S | -0.421
F453I | -0.334
F453E | -1.1
E452H | -0.275
E452Y | -0.442
E452P | -0.856
E452A | -0.387
E452I | -0.47
E452L | -0.252
E452T | 0.0217

Variant | 8OG:A repair function score
E452W | -0.631
E452D | -0.0961
E452R | -0.0533
E452K | -0.211
E452S | -0.0485
E452N | -0.395
E452G | -0.228
E452F | -0.387
E452V | -0.351
E452M | -0.205
E452Q | -0.335
E452C | -0.0884
G444Y | -0.204
E451C | -0.198
E451V | -0.135
E451Y | 0.131
E451M | 0.0404
E451N | 0.26
E451S | -0.131
E451T | -0.12
E451D | -0.178
E451P | -0.158
E451Q | -0.157
E451W | -0.143

Variant | 8OG:A repair function score
E451H | 0.0926
E451L | -0.179
E451F | -0.282
E451K | -0.241
E451I | -0.186
E451G | -0.0413
E451R | 0.0453
E451A | -0.0912
T455Y | -0.209
T455L | -0.171
T455I | 0.0349
T455N | 0.0652
T455A | -0.141
T455K | -0.247
T455V | -0.122
T455H | 0.0572
T455Q | 0.174
T455M | -0.111
T455W | -0.419
T455G | -0.211
T455F | -0.273
T455S | 0.128
T455E | -0.119
T455D | -0.394

Variant | 8OG:A repair function score
T455P | -0.714
T455R | -0.0505
T455C | 0.318
L448E | -0.411
L448S | -0.184
L448W | -0.658
L448G | -0.516
L448K | -0.743
L448Y | -0.324
L448H | -0.0456
L448A | -0.105
L448N | -0.42
L448Q | -0.202
L448F | -0.205
L448C | -0.0248
L448V | -0.117
L448M | 0.207
L448T | -0.164
L448R | -0.341
L448D | -0.727
L448P | -0.895
L448I | -0.0362
